From the RNAGym collection of RNA variant scans (doi:10.1073/pnas.2313332121)

B1: TPR t1 (parent)
chain: GACCAAUCUGCCCUCAGAGCUCGAGAACAUCUUCGGAUGCAGAGGAGGCAGGCUUCGGUGGCGCGAUAGCGCCAACGUCCUCAACCUCCAAUGCAUCCCACCACAUGAUGAUGCCUGAAGAGCCUUGGUUUUUUG

Variants of: B1
Test: polymerase ribozyme fitness, log enrichment relative to wild type (log ratio); higher = more active; in vitro selection for triplet polymerase activity
Outline: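 Mutant libraries of each subunit of a heterodimeric triplet polymerase ribozyme were built by PCR and transcribed. Each library went through one round of in vitro selection in triplicate: annealing with biotinylated primer, partner subunit and triplets, frozen incubation at −7 °C, gel excision of extended constructs, streptavidin-bead capture and RT-PCR. Input and output libraries were Illumina-sequenced; only genotypes with ≥10 input reads and ≥1 read per output were kept. Fitness is log2(genotype enrichment/wild-type enrichment), using inverse-variance-weighted replicate averages.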

Variant	polymerase ribozyme fitness (log ratio)
G10A A37U C72A G77C G113A C114U U116G G128A	-7.17
U9G C62G G120C	0.877
C8U G93U C102U G120C	-1.01
U9C G10A A37U	-0.108
U9G C13A U59A C72A	-1.53
U9G C34A G120C	-0.929
C8U C28U U116A	-3.54
C8U C73U U112A	1.84
U9C A29U G61A C88U C102U	-4.47
G10A A18U G77A U87A C115A	-1.44
U9C G42U C53G C56A C73A C88U	-1.43
U9A C85A C97U G117C C124A	-3.01
U9G C123U	0.831
U9G C123G	1.31
U9C C49A C62U C123U	1.78
U9C G48C C101A G117A	-1.58
C8U C40U G51C G120C	-1.98
G10A A37U C53A C56G G69A C88U G120C G122U	-1.99
U9A G110U C124G	-0.636
U9C C12U U81A C89A	-1.67
C8U C22G G39C A41G G63A A118U	-3.78
U9A U14G A41C G42U G60U	-0.928
C8U C34U G35A C101A C114U	-6.15
U9G A16U C82U C88U A95U U130G	-0.874

Variant	polymerase ribozyme fitness (log ratio)
C8U C72G G93A	-0.0349
C8U G17U G36C G71U C82G	-4.44
C8U C53U	0.0512
U9A A37C G63C	-0.708
U9G C53U G61C C124G U131A	1.49
C8U U55G G113C	-1.85
U9A A111U	-1.46
C8U G44A C56A	-0.314
U9G G42A A105U	-4.37
U9C A27C C40G C72A	-3.22
U9G C70A G71A G127C	-4.46
U9C G60U C99A	-6.14
U9G C72A	-0.48
C8U G19C G42U C62G A91G C123U	-2.98
U9A C12A A16C A26U G47U	-5.44
U9G C13G	0.0659
U9A A83G	-0.27
U9G G10C C11A C15A A37G U78C C85U A95U C123U	-3.97
U9A A91C U92A C104U	-2.18
U9C G44A C79U C86U G120A	0.952
U9C G17U U32C C49U C72U A105G	-5.59
U9A C34A C72A C102U C123A G128U	-1.61
U9A G39A C56A G60A	0.000466
U9A A46C A50C C82G	-0.971

Variant	polymerase ribozyme fitness (log ratio)
C8U U32A U96A A121C U130C	-3.85
U9G G42C G45A C85G	-4.6
U9A G39C C99U	-2.83
U9A A90C	-0.569
C8U G45U U59C U92A	-4.17
C8U G77C	-0.262
U9C U67C C82G U109C	-6.64
C8U U38G G61U G93A	-4.11
C8U C49G	0.889
U9A C56A C82A C85A	-0.979
G10A C11A C15A	-4.29
U9C G71U U78G U132A	-0.414
U9G C99A	-5.82
C8U C64A U78C C123U	-4.51
C8U G61U A84C G120U	1.93
U9G U54A C97G U131C	-4.7
C8U U9G G57A	-0.23
U9A G48C G77A C88U U112A	0.603
U9A G19U A46U C56G U133G	-4.95
U9C G17A A18G G69U G113U	-4.32
U9G C12G C28G C40A C85A A90C C104A G110C	-4.42
C8U C72G U96G	-1.03
U9A C12A G42U A46G C53G C70U U132A	-2.02
C8U C73U U78C	0.277

Variant	polymerase ribozyme fitness (log ratio)
C8U C72G	0.517
C8U G36U U78C C88G C101A	-3.59
U9A A27U G42U	-4.71
G10A A90C A121C	0.254
U9G C104U	0.944
U9G G45A C49U C72U G93A	-1.56
U9A C56G	-0.125
U9C C70U G93A	0.136
U9G G69C A105U U112G	-4.11
C8U C22U G52U G60C	-4.56
U9A C72U G110C U130A	-4.28
U9G C11G C94U	-4.64
C8U C62U C64A	-5.43
C8U G58A G93U G117U G128C	-5.28
U9C A16G G57C G110C	-4.22
U9G C53U G107C	-5.76
C8U G39U C49G G63A U78A G128A	-3.94
U9G C85U	-0.222
U9G C13A G48C C56A C72A U78A	-1.24
U9C U96A	0.079
U9A G10A C40A U78C G110U C123U	-2.19
U9G G71U	0.107
U9C C11U G61A C88G	-0.498
C8U G71U U78C C98U A119U	-1.03

Variant	polymerase ribozyme fitness (log ratio)
C8U C22G U33A A50C G57U G120U	-4.54
C8U G127C	-1.53
G10A A26G A103U C104A A121C	-0.666
U9G A111U A118U G120A	-2.78
U9G U96G	-0.204
C8U C72G U87G C94U G122A	-0.203
C8U G51A	-1.3
G10A A29C	-1.99
U9A C31G A83C G107C	-1.45
U9G A18C C56G C72A	-3.47
U9A C72U C123G U134G	2.67
C8U G113C	-1.19
U9A A18U U92C	-2.53
U9A G61U C89U U92A U129A	-3.6
U9G U30C G120C G127A	-3.41
U9A G36A	0.00915
U9G U55C C89U C94A U126A	-1.95
U9C C53G C114U U116A C123A U130C	-7.66
C8U C70A	-1.06
C8U C70U	-0.398
C8U C70G	-1.58
U9G G61C C102A G122A U125A	-4.92
U9G C124A U131G	1.79
U9C C20A G69C C101A	-6.63

Variant	polymerase ribozyme fitness (log ratio)
C8U G10U C72U	-0.279
U9C G48U G52C C94U	-2.36
U9A A18C G44A C70U G93C	-4.58
U9C C53U A83C	0.688
U9C U78C	0.403
C8U C20U A37U A43U C72U A74U	-2.39
U9A A16G G93A G117A	-0.214
U9C C11U G17A	-3.22
U9A G36U G120U	1.67
U9G G36U G60C A68G U78A C88A	-6.1
U9G C13U G17U U87C	-0.186
C8U G51A C64U C104G G120C	-6.76
U9C G60U A105U A119G	-1.05
C8U C22A C62U	-4.04
C8U G42A A111G U116A A121G C124G	-2.21
C8U G52C	-0.0551
U9G G36A C101G A121U	-0.24
U9C C22U A46C A103G G113C	-7.29
C8U G71A C76A G120U	-5.96
C8U U21A C22U A27G C31G C56U G60A C86A U87G C115A A121C	-5.4
U9G A41U U54A U78C	-1.59
U9G C89U	0.304
U9A C13G G61U	0.255
U9C G25A	-6.01

Variant	polymerase ribozyme fitness (log ratio)
U9G G10C C11A C89U A103U U109A	-5.83
U9A C49G G93C G120A U131A	0.443
U9G A66U C80A C85U	-5.32
C8U C40A	-1.07
C8U C49U C56U C70U C98A	-6.59
U9G G65A C72G G122A C123G U129G	-5.67
C8U U32C C62A G117U	-2.35
U9A A26G C101G C104A G122A	-3.48
U9C C56A A95C U116A	-2.12
U9A G47U C97G C99U G120U U130C	-5.08
U9C A43U C73U C79U A111G	-0.526
U9A A26U	-1.79
U9A A91G	-0.793
G10A A29U C72A C88G U116G	-3.97
U9G C12G G36A C101G	-1.32
C8U G19C A43U C94A C115A G120U U133A	-2.68
U9G A37C C40U C72U C123A	-0.161
U9A U14A C64U	0.0854
C8U G57U	-0.029
U9C C11U G17C A41U	-4.76
U9A G58C G71A U112A G113C G128U	-3
U9A C73A C104U U130G G135C	0.682
U9G A18C C56G G120A U130A	-1.19
